# Assay results as given in EP4671273A1 (Anaveon AG, dated 2025).
# Legend:
# [1] = target: human IL-21 receptor (IL-21R) on cells (human, UniProt Q9HBE5 20-538; P31785 23-369); assay: cell-based or functional assay
# [2] = target: T1, cynomolgus PD-1 (#PD1-C52H5, AcroBiosystems) (cynomolgus monkey, UniProt B0LAJ3 25-170); assay: SPR, PD-1 on captured IgG1
# T1 construct: bought; also called cynomolgus monkey PD-1; not shown: the vendor's tag on the recombinant protein (AcroBiosystems #PD1-C52H5)
# [3] = target: T2, human PD-1 (#PD1-H82E4, AcroBiosystems) (human, UniProt Q15116 25-167); assay: SPR, PD-1 on captured IgG1
# T2 construct: bought
# T2 sequence (Q15116 25-167 limits assumed): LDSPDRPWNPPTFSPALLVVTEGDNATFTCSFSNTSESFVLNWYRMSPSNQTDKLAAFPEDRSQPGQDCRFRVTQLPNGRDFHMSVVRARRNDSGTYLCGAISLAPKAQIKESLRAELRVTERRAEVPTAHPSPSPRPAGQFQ
# Chain of human IL-21 receptor (IL-21R) on cells (Q9HBE5 20-538, chain 1 of 2): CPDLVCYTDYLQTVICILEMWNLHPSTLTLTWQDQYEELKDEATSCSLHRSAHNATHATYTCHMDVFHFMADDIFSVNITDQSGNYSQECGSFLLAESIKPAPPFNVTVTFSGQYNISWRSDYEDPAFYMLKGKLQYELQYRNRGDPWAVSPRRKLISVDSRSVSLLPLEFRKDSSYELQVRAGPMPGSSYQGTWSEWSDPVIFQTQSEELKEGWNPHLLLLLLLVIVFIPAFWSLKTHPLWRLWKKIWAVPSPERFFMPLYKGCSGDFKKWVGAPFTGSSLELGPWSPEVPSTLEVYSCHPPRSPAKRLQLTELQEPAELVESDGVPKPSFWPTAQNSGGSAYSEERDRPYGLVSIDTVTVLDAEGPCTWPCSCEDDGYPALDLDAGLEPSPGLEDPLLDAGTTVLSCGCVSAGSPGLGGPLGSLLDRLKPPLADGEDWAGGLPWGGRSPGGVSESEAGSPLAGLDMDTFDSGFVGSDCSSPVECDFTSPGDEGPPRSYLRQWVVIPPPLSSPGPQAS
# Chain of human IL-21 receptor (IL-21R) on cells (P31785 23-369, chain 2 of 2): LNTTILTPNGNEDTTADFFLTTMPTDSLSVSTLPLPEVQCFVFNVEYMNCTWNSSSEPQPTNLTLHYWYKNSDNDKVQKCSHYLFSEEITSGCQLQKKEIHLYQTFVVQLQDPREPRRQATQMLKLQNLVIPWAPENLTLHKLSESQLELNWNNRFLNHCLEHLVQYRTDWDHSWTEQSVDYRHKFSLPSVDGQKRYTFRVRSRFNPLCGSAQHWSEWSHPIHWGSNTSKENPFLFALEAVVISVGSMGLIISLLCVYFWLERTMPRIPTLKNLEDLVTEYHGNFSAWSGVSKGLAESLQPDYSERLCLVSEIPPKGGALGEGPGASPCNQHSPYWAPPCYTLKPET
# T1 sequence (B0LAJ3 entry or part of it limits assumed, form in doubt): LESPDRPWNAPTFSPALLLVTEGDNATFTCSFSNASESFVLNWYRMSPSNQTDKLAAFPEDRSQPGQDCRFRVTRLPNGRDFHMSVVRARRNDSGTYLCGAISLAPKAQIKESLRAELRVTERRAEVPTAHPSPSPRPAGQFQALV
Binder,"EC50B, pSTAT3+ Jurkat PD-1 cells, PD-1 blocked [1]","EC50NB, pSTAT3+ Jurkat PD-1 cells [1]",Kd [2],koff [2],kon [2],Kd [3],koff [3],kon [3]
"EFY288 (bispecific antibody, human IgG1, kappa, lambda, L234A L235A) heavy 1: EVQLLESGGGLVQPGGSLRLSCAASGFTFSINAMTWVRQAPGKGLEWVSTISGSGFSTYYADSLKGRFTISRDNSKNTLYLQMNSLRAEDTAVYYCAKEVYGDYWGQGTLVTVSSASTKGPSVFPLAPSSKSTSGGTAALGCLVKDYFPEPVTVSWNSGALTSGVHTFPAVLQSSGLYSLSSVVTVPSSSLGTQTYICNVNHKPSNTKVDKRVEPKSCDKTHTCPPCPAPEAAGGPSVFLFPPKPKDTLMISRTPEVTCVVVDVSHEDPEVKFNWYVDGVEVHNAKTKPREEQYNSTYRVVSVLTVLHQDWLNGKEYKCKVSNKALAAPIEKTISKAKGQPREPQVCTLPPSREEMTKNQVSLSCAVKGFYPSDIAVEWESNGQPENNYKTTPPVLDSDGSFFLVSKLTVDKSRWQQGNVFSCSVMHEALHNHYTQKSLSLSPGK light 1: not shown heavy 2: QVQLQESGPGLVKPSETLSLTCTVSGGSISSDYWGWIRQPPGKGLEWIGYISYRGSTNYNPSLKSRVTISVDTSRNQFSLKLSSVTAADTAVYYCARSAGVTDFDAWGQGTLVTVSSASTKGPSVFPLAPSSKSTSGGTAALGCLVKDYFPEPVTVSWNSGALTSGVHTFPAVLQSSGLYSLSSVVTVPSSSLGTQTYICNVNHKPSNTKVDKRVEPKSCDKTHTCPPCPAPEAAGGPSVFLFPPKPKDTLMISRTPEVTCVVVDVSHEDPEVKFNWYVDGVEVHNAKTKPREEQYNSTYRVVSVLTVLHQDWLNGKEYKCKVSNKALAAPIEKTISKAKGQPREPQVYTLPPCREEMTKNQVSLWCLVKGFYPSDIAVEWESNGQPENNYKTTPPVLDSDGSFFLYSKLTVDKSRWQQGNVFSCSVMHEALHNHYTQKSLSLSPGK light 2: not shown",0.234 nM,0.129 nM,–,–,–,–,–,–
"CHU368 (bispecific antibody, human IgG1, kappa, lambda, L234A L235A) heavy 1: EVQLLESGGGLVQPGGSLRLSCAASGFTFSINAMTWVRQAPGKGLEWVSTISGSGFSTYYADSLKGRFTISRDNSKNTLYLQMNSLRAEDTAVYYCAKEVYGDYWGQGTLVTVSSASTKGPSVFPLAPSSKSTSGGTAALGCLVKDYFPEPVTVSWNSGALTSGVHTFPAVLQSSGLYSLSSVVTVPSSSLGTQTYICNVNHKPSNTKVDKRVEPKSCDKTHTCPPCPAPEAAGGPSVFLFPPKPKDTLMISRTPEVTCVVVDVSHEDPEVKFNWYVDGVEVHNAKTKPREEQYNSTYRVVSVLTVLHQDWLNGKEYKCKVSNKALAAPIEKTISKAKGQPREPQVCTLPPSREEMTKNQVSLSCAVKGFYPSDIAVEWESNGQPENNYKTTPPVLDSDGSFFLVSKLTVDKSRWQQGNVFSCSVMHEALHNHYTQKSLSLSPGK light 1: not shown heavy 2: QVQLQESGPGLVKPSETLSLTCTVSGGSISSDYWGWIRQPPGKGLEWIGYISYRGSTNYNPSLKSRVTISVDTSRNQFSLKLSSVTAADTAVYYCARSAGVTDFDAWGQGTLVTVSSASTKGPSVFPLAPSSKSTSGGTAALGCLVKDYFPEPVTVSWNSGALTSGVHTFPAVLQSSGLYSLSSVVTVPSSSLGTQTYICNVNHKPSNTKVDKRVEPKSCDKTHTCPPCPAPEAAGGPSVFLFPPKPKDTLMISRTPEVTCVVVDVSHEDPEVKFNWYVDGVEVHNAKTKPREEQYNSTYRVVSVLTVLHQDWLNGKEYKCKVSNKALAAPIEKTISKAKGQPREPQVYTLPPCREEMTKNQVSLWCLVKGFYPSDIAVEWESNGQPENNYKTTPPVLDSDGSFFLYSKLTVDKSRWQQGNVFSCSVMHEALHNHYTQKSLSLSPGK light 2: not shown",2.16 nM,0.583 nM,–,–,–,–,–,–
"GWM570 (bispecific antibody, human IgG1, kappa, lambda, L234A L235A) heavy 1: EVQLLESGGGLVQPGGSLRLSCAASGFTFSINAMTWVRQAPGKGLEWVSTISGSGFSTYYADSLKGRFTISRDNSKNTLYLQMNSLRAEDTAVYYCAKEVYGDYWGQGTLVTVSSASTKGPSVFPLAPSSKSTSGGTAALGCLVKDYFPEPVTVSWNSGALTSGVHTFPAVLQSSGLYSLSSVVTVPSSSLGTQTYICNVNHKPSNTKVDKRVEPKSCDKTHTCPPCPAPEAAGGPSVFLFPPKPKDTLMISRTPEVTCVVVDVSHEDPEVKFNWYVDGVEVHNAKTKPREEQYNSTYRVVSVLTVLHQDWLNGKEYKCKVSNKALAAPIEKTISKAKGQPREPQVCTLPPSREEMTKNQVSLSCAVKGFYPSDIAVEWESNGQPENNYKTTPPVLDSDGSFFLVSKLTVDKSRWQQGNVFSCSVMHEALHNHYTQKSLSLSPGK light 1: not shown heavy 2: QVQLQESGPGLVKPSETLSLTCTVSGGSISSDFWGWIRQPPGKGLEWIGYISSRGSTNYNPSLKRRVTISVDTSRNQFSLKLSSVTAADTAVYYCARSAGVTDFDFWGQGTLVTVSSASTKGPSVFPLAPSSKSTSGGTAALGCLVKDYFPEPVTVSWNSGALTSGVHTFPAVLQSSGLYSLSSVVTVPSSSLGTQTYICNVNHKPSNTKVDKRVEPKSCDKTHTCPPCPAPEAAGGPSVFLFPPKPKDTLMISRTPEVTCVVVDVSHEDPEVKFNWYVDGVEVHNAKTKPREEQYNSTYRVVSVLTVLHQDWLNGKEYKCKVSNKALAAPIEKTISKAKGQPREPQVYTLPPCREEMTKNQVSLWCLVKGFYPSDIAVEWESNGQPENNYKTTPPVLDSDGSFFLYSKLTVDKSRWQQGNVFSCSVMHEALHNHYTQKSLSLSPGK light 2: not shown",2.13 nM,0.257 nM,–,–,–,–,–,–
"JOH712 (antibody, human IgG1, V domains shown, human IgG1) VH: EVQLLESGGGLVQPGGSLRLSCAASGFTFSINAMTWVRQAPGKGLEWVSTISGSGFSTYYADSLKGRFTISRDNSKNTLYLQMNSLRAEDTAVYYCAKEVYGDYWGQGTLVTVSS VL: RSVLTQPPSASGTPGQRVSISCSGASSNIGSQSVFWYQQHPGTAPKLLIYSNNQRPSGVPDRFSGSKSGTSASLAISGLRSEDEADYYCAAWDDSLSIWVFGGGTKLTVL",–,–,1110 pM,0.000252 s⁻¹,227000 M⁻¹ s⁻¹,546 pM,8.88e-05 s⁻¹,163000 M⁻¹ s⁻¹
"JZW468 (antibody, human IgG1, V domains shown, human IgG1) VH: EVQLLESGGGLVQPGGSLRLSCAASGFTFSINAMTWVRQAPGKGLEWVSTISGSGFSTYYADSLKGRFTISRDNSKNTLYLQMNSLRAEDTAVYYCAKEVYGDYWGQGTLVTVSS VL: RSVLTQPPSASGTPGQRVSISCSGASSNIGSQSVFWYQQLPGTAPKLLIYSNNQRPSGVPDRFSGSKSGTSASLAISGLRSEDEADYYCAAWDDQLSIWVFGGGTKLTVL",–,–,959 pM,0.00029 s⁻¹,302000 M⁻¹ s⁻¹,631 pM,9.2e-05 s⁻¹,146000 M⁻¹ s⁻¹
"KOW427 (antibody, human IgG1, V domains shown, human IgG1) VH: EVQLLESGGGLVQPGGSLRLSCAASGFTFSINAMTWVRQAPGKGLEWVSTISGSGFSTYYADSLKGRFTISRDNSKNTLYLQMNSLRAEDTAVYYCAKEVYGDYWGQGTLVTVSS VL: RSVLTQPPSASGTPGQRVSISCSGASSNIGSQSVFWYQQLPGTAPKLGIYSNNQRPSGVPDRFSGSKSGTSASLAISGLRSEDEADYYCAAWDDSLSIWVFGGGTKLTVL",–,–,1270 pM,0.000296 s⁻¹,233000 M⁻¹ s⁻¹,586 pM,7.97e-05 s⁻¹,136000 M⁻¹ s⁻¹
"KWH245 (antibody, human IgG1, V domains shown, human IgG1) VH: EVQLLESGGGLVQPGGSLRLSCAASGFTFSINAMTWVRQAPGKGLEWVSTISGSGFSTYYADSLKGRFTISRDNSKNTLYLQMNSLRAEDTAVYYCAKEVYGDYWGQGTLVTVSS VL: RSVLTQPPSASGTPGQRVSISCSGASSNIGSQSVFTYQQLPGTAPKLLIYSNNQRPSGVPDRFSGSKSGTSASLAISGLRSEDEADYYCAAWDDSLSIWVFGGGTKLTVL",–,–,2290 pM,0.000644 s⁻¹,281000 M⁻¹ s⁻¹,183 pM,0.000305 s⁻¹,1.67e+06 M⁻¹ s⁻¹
"KYC847 (antibody, human IgG1, V domains shown, human IgG1) VH: EVQLLESGGGLVQPGGSLRLSCAASGFTFSINAMTWVRQAPGKGLEWVSTISGSGFSTYYADSLKGRFTISRDNSKNTLYLQMNSLRAEDTAVYYCAKEVYGDYWGQGTLVTVSS VL: RSVLTQPPSASGTPGQRVSISCSGASSNIGSQSVFWYQQLPGTAPKLLIYSNNQRPSGVPDRFSGSKSGTSASLAISGLRSEDEADYYCAAWDDSLTIWVFGGGTKLTVL",–,–,597 pM,0.000139 s⁻¹,233000 M⁻¹ s⁻¹,528 pM,7.59e-05 s⁻¹,144000 M⁻¹ s⁻¹
"NWL270 (antibody, human IgG1, V domains shown, human IgG1) VH: EVQLLESGGGLVQPGGSLRLSCAASGFTFSINAMTWVRQAPGKGLEWVSTISGSGFSTYYADSLKGRFTISRDNSKNTLYLQMNSLRAEDTAVYYCAKEVYGDYWGQGTLVTVSS VL: RSVLTQPPSASGTPGQRVSISCSGASSNIGSQSVFWYQQLPGTAPKLLIYSNNQRPSGVPDRFSGSKSGTSASLAISGLRSEDEADYYCAAWDDSLSNWVFGGGTKLTVL",–,–,949 pM,0.00015 s⁻¹,158000 M⁻¹ s⁻¹,229 pM,9.82e-05 s⁻¹,429000 M⁻¹ s⁻¹
"SSR010 (antibody, human IgG1, V domains shown, human IgG1) VH: EVQLLESGGGLVQPGGSLRLSCAASGFTFSINAMTWVRQAPGKGLEWVSTISGSGFSTYYADSLKGRFTISRDNSKNTLYLQMNSLRAEDTAVYYCAKEVYGDYWGQGTLVTVSS VL: RSVLTQPPSASGTPGQRVSISCSGASSNVGSQSVFWYQQLPGTAPKLLIYSNNQRPSGVPDRFSGSKSGTSASLAISGLRSEDEADYYCAAWDDSLSIWVFGGGTKLTVL",–,–,1140 pM,0.000301 s⁻¹,263000 M⁻¹ s⁻¹,76.7 pM,0.000199 s⁻¹,2.6e+06 M⁻¹ s⁻¹
